{"source": "patent US7166426", "key": {"[1]": {"target": "denatured NS3/4a (hepatitis C virus, HCV-1 (HCV1a)) (UniProt P26664)", "assay": "ELISA, antigen coated on microtiter plate, negative control"}, "c200 antigen [2]": {"target": "c200 antigen", "assay": "ELISA, antigen coated on microtiter plate, negative control"}, "[3]": {"target": "NS3/4a conformational epitope with Thr to Pro and Ser to Ile substitutions (hepatitis C virus, HCV-1 (HCV1a)) (UniProt P26664)", "assay": "ELISA, antigen coated on microtiter plate, negative control"}, "[4]": {"target": "denatured NS3/4a (hepatitis C virus, HCV-1 (HCV1a)) (UniProt P26664)", "assay": "ELISA, antigen coated on microtiter plate, average of the negative controls"}, "c200 antigen [5]": {"target": "c200 antigen", "assay": "ELISA, antigen coated on microtiter plate, average of the negative controls"}, "[6]": {"target": "NS3/4a conformational epitope with Thr to Pro and Ser to Ile substitutions (hepatitis C virus, HCV-1 (HCV1a)) (UniProt P26664)", "assay": "ELISA, antigen coated on microtiter plate, average of the negative controls"}}, "note": "“And” between values parts separate entries of the source, which are not always exact repeats. Identical values can stand only once."}
{"substance": "HCV 3.0 Controls, negative control", "values": [{"measurement": "OD", "setting": "[1]", "result": "0.024 OD and 0.017 OD"}, {"measurement": "OD", "setting": "c200 antigen [2]", "result": "0.008 OD and 0.007 OD and 0.005 OD"}, {"measurement": "OD", "setting": "[3]", "result": "0.023 OD and 0.027 OD and 0.021 OD"}, {"measurement": "OD (average of Neg. Cont.)", "setting": "[4]", "result": 0.022, "unit": "OD"}, {"measurement": "OD (average of Neg. Cont.)", "setting": "c200 antigen [5]", "result": 0.007, "unit": "OD"}, {"measurement": "OD (average of Neg. Cont.)", "setting": "[6]", "result": 0.024, "unit": "OD"}]}
